{"source": "paper PMC4786781", "binders": {"B1": {"name": "39-bp scrambled parS duplex (oTG044F/oTG043R) (dsDNA)", "DNA 1": "CAGTTGAATCTGACAAATGACTAACAATGAGAGCAAAAA", "DNA 2": "TTTTTGCTCTCATTGTTAGTCATTTGTCAGATTCAACTG"}}, "biological_target": "T1, Spo0J R82A (Bacillus subtilis, UniProt P26497 1-282, R82A)", "T1 sequence": "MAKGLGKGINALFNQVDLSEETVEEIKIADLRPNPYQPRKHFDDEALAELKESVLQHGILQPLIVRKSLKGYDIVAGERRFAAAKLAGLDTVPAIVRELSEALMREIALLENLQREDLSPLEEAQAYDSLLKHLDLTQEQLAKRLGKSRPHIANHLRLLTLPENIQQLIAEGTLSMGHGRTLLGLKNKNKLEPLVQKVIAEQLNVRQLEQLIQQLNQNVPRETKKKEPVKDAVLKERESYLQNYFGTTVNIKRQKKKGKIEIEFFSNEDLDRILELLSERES", "experiment": "white light interferometry (BLItz), Hill fit (n=1.9±0.5); 150 mM NaCl, 0.02% Tween-20; apparent Kd; PIFE: 20 mM Tris pH 7.5, 100 ug/ml BSA, 100 mM NaCl (150 mM for Spo0J R82A Kd), flow 100 ul/min; BLItz: 20 mM Tris pH 7.5, 150 mM NaCl, 100 ug/ml BSA, 0.02% Twe"}
{"binder": "B1", "values": [{"measurement": "Kd", "value": "131 ± 24.3", "unit": "nM"}]}
